Experimental data from PMC9930899, “New Insights into rice pyrimidine catabolic enzymes” (Frontiers in Plant Science, 2023).

Key:
Format in all cases: biochemical, Oryza sativa
purified protein [1] = substrate: CC(CNC(N)=O)C(=O)O; test: purified protein; details: 25°C
purified protein [2] = substrate: NC(=O)NCCC(=O)O; test: purified protein; details: 25°C
[3] = substrate: O=C1C[C@@H](C(=O)O)NC(=O)N1; test: steady-state DHODH activity, Michaelis-Menten fit; details: co-substrate decylubiquinone, 30°C
Source text: (§1) steady-state DHODH activity, Michaelis-Menten fit on OsDHODH

[4] = substrate: CCCCCCCCCCC1=C(C)C(=O)C(OC)=C(OC)C1=O; test: steady-state DHODH activity, Michaelis-Menten fit; details: co-substrate L-dihydroorotate, 30°C
Source text: as §1

purified protein [5] = substrate: O=C1CCNC(=O)N1; test: purified protein; details: 0.1 M potassium buffer, pH 8, 1 mg/mL BSA, 37°C

B1: Osß-UP (Oryza sativa Japonica Group) (protein)
chain: MDSSNGERPPQGEDAPAAAAGSIGGYESLHRLLQSNLSPELFKEASRLLLGLNCGRALEAISLPEATSALAKAHNFDVQAFRFDADKEYLRQPRVIRVGLIQNSIAIPTTSHFADQKKAIMEKVKPMIDAAGDAGVNILCLQEAWTMPFAFCTREKRWCEFAEPVDGESTQFLQQLAKKYNMVIVSPILERDVNHGEIVWNTAVVIGNHGNIIGIHRKNHIPRVGDFNESTYYMEGNTGHPVFETAYGKIGVNICYGRHHPLNWLAFGLNGAEIVFNPSATVGELSEPMWPIEARNAAIANSYFVGSINRVGTEVFPNPFTSGDGKPQHADFGHFYGSSHFSAPDASCTPSLSRYRDGLMISDMDLNLCRQIKDKWGFRMTARYDTYASLLSEYLKPDFKPQVIVDPLINKSA
notes: full length, 413 residues (45,713 Da), N-terminal His-tag, pET15b, E. coli
Km (purified protein [1]): 160 ± 20 µM
kcat (purified protein [1]): 1.36 ± 0.07 s⁻¹
kcat/Km (purified protein [1]): 8500 M⁻¹ s⁻¹
Km (purified protein [2]): 140 ± 10 µM
kcat (purified protein [2]): 2.54 ± 0.07 s⁻¹
kcat/Km (purified protein [2]): 18100 M⁻¹ s⁻¹

B2: OsDHODH (Oryza sativa Japonica Group) (protein)
chain: DEAKFCGWLFKSTQLVNPLFALLDAEFAHRLAVTAASHGFVPREKRPDPSVLGLEIWGRKFTNPIGLAAGFDKNAEAVEGLLGMGFGFVEVGSVTPLPQEGNPKPRIFRLREHGAVINRCGFNSEGIVVVAKRLGAQHGKRKMEETSSSTSPTTSDVKQGGKAGPGILGVNLGKNKISEDATADYVQGVHTLSQYADYLVINVSSPNTPGLRKLQGRKQLKDLVKKVQAARDEMQWAEDGPPPLLVKIAPDLSKQDLEDIAAVALALRLDGLIISNTTISRPSPADTHPLAQEAGGLSGKPLFDLSTNVLREMYILTRGKIPLIGCGGVSSGEDAYKKIRSGATLVQLYTAFAYGGPALIPRIKAELAECLERDGFKSVQEAVGADFK
notes: N-terminally truncated, starts at residue 82 (DEAK); N-terminal His-tag, pET15b, E. coli; full length 469 residues
Km [3]: 29.7 ± 3.5 µM
Km [4]: 4.56 ± 0.67 µM

B3: OsDHP-T1 (Oryza sativa Japonica Group) (protein)
chain: EFCAAVGGGSGGCGVGGGGGGDGRRILIRGGTVVNAHRVEEADVYVEDGVIVAVRPNIPVGDDHVKVIDATGKYVMPGGIDPHTHLEMEFMGTVTIDDFFSGHAAALAGGTTMHIDFVIPVNGNLTAGLESYKQKAEKSAMDYGFHMAITKWNDDVSREMETMVKEHGINSFKFFMAYKGSLMVTDDLLLQGLQKCKSLGALAMVHAENGDAVAEGQQRMIDLGITGPEGHALSRPPVLEGEATARAIRLAKFVNTPLYVVHVMSIDAMDEIAKAKREGQRVIGEPVVSGLVLDDSWLWDPDFMIASKYVMSPPIREAGHNKALQVALSSGILQLVGTDHCTFNSTQKAFGSDDFRKIPNGVNGIEERMHIIWDSMVETGRISVSDYVRVTSTECAKIFNIYPRKGAILEGSDADIIILNPERSFVMGAHTHHSRSNTNVYEGRKGKGMVEVTISRGRVVWEDGILNVVPGSGRYVRTPPYSYLFDGIEKSDAAYRASLRAPVKRGKAAA
notes: N-terminal His-tag, pET19b, E. coli; full length 539 residues, 57,989 Da
Km (purified protein [5]): 300 ± 40 µM
kcat (purified protein [5]): 1.07 ± 0.04 s⁻¹
kcat/Km (purified protein [5]): 3550 M⁻¹ s⁻¹
